No end group written: not given here.
How the values were obtained:
[1] = LC-MS/MS (PRM) detection of nisin in human urine after oral ingestion; type: in vivo
Protocol: (§1) Nisin ZP (Handary S.A; Brussels, Belgium) was ingested by a healthy volunteer. […] Sterile urine was then collected at 4 pm (Sample 1) and 8 pm (Sample 2) on the first day of ingestion, and at 6 am (Sample 3), 8 am (Sample 4), 3:30 pm (Sample 5), and 9 pm (Sample 6) the next day. Urine samples were frozen at −80°C immediately upon collection (Table 1).
Six urine samples, including both standard and nisin-spiked samples, were thawed/prepared then centrifuged at 4000×g to pellet large solute materials/proteins. The supernatant from each sample was then filtered using a 10 kDa MWCO Amicon® Ultra Centrifugal Filter to further remove larger protein molecules. The filtered urine was lyophilized under stringent conditions (−50 °C and 0.1 Torr) for 48 hours to ensure complete dryness. The lyophilized cake was resuspended in 0.1% Trifluoroacetic Acid (TFA) for sample homogenization. A subsequent centrifugation step at 12000×g for 5 minutes allowed for the separation of any remaining particulate matter, with the supernatant being carefully transferred into a clean tube. The supernatant underwent desalting using C18 Stage Tips, which were prepared by equilibration in 1% TFA and 50% Acetonitrile (ACN), followed by a washing solution of 5% ACN and 0.1% TFA, and an elution in 40% ACN with 0.1% TFA. The peptides eluted were vacuum dried and then resuspended in 5% Formic Acid (FA).
Nisin peptide abundance was measured using liquid chromatography coupled to mass spectrometry (LC-MS/MS). After reconstitution in formic acid, the samples were fractionated online by C18 reversed phase chromatography using a Dionex U3000 HPLC to deliver an increasing gradient of acetonitrile. Peptides were eluted and electrosprayed directly in a Thermofisher Fusion Lumos mass spectrometer. Data were acquired using a parallel reaction monitoring strategy in which the +5 precursor ion of full-length nisin was analyzed by MS/MS [51]. The precursor and fragment ion masses for +5 charge state of nisin utilized for Parallel Reaction Monitoring are shown in Table 2. Extracted ion chromatograms were generated for each fragment ion using the Skyline software package. The area under the curve for each fragment ion was summed to calculate an estimate of nisin abundance.

[2] = Western blotting of nisin in urine samples after oral ingestion; type: in vivo, human
Protocol: as §1
The urine samples were filtered using a 10 kDa MWCO Amicon® ultra centrifugal filter (Cat No: UFC201024, Millipore). The filtrate was used to analyze nisin, while the top retained fraction was used to check for potential nisin-binding proteins that might bind to and shift nisin to a higher molecular weight.
Western blot analyses were performed on the filtrate and top fractions from the urine samples to detect nisin and nisin binding proteins, respectively. Samples were normalized by equal protein concentration (125 μg) and then mixed with 4X Laemmli sample buffer (Cat. No. 1610747, Bio-Rad) containing β-ME (3:1). The proteins were resolved by 16% Tricine SDS-PAGE (Invitrogen, Cat No. EC6695) then transferred to Immobilon-P membranes. The blots were probed with a custom polyclonal affinity-purified rabbit nisin antibody (proprietary to Kapila lab). The antibody against nisin was produced by co-immunizing rabbits with four short nisin peptide sequences (Pacific Immunology, Ramona, CA). Blots were incubated with horseradish peroxidase-conjugated anti-rabbit antibody (SC-2004, Santa Cruz Biotechnology) and then developed with the ECL-plus detection system (Thermo Fisher Scientific).

[3] = Tolerability of oral ingestion of nisin; type: in vivo, human; conditions: 20 grams in total, two doses of 10 grams/150 ml of water at noon and 6 pm; one healthy person
Protocol: as §1

[4] = cited from earlier work
Protocol: (§2) Nisin mediates its action in part by interactions with phospholipid bilayers on cellular membranes. Prior pharmacokinetic and pharmacodynamic information indicate that nisin can be absorbed via epithelial tissues. Nisin can be absorbed through the vaginal epithelium into the circulation following intravaginal administration in rabbits. Maximum levels of nisin were detected in blood samples after 1 h of treatment. […] Further, Dreyer et al. reported the migration of nisin a ...

[5] = test system: gastrointestinal epithelial and vascular endothelial cells; conditions: in vitro; ref 35 (Dreyer et al.); cited from earlier work
Protocol: as §2

[6] = oral ingestion, encapsulated nisin and nisin powder groups, at 24, 48 and 72 hours; mass spectrometry; cited from earlier work
Source text: Like other reports of nisin detection with LC-MS/MS, this project employed similar methods to successfully detect nisin and its fragments in urine samples [44–49]. The ongoing clinical trial (ClinicalTrials.gov; NCT06097468) of nisin in oral cancer patients and studies with larger sample sizes will be helpful to furthe ...

[7] = rabbits, intravaginal administration

## Nisin ZP: Natural bacteriocin made by Lactococcus lactis, food preservative; Nisin ZP from Handary S.A, Brussels, Belgium (ITSISLCTPGCKTGALMGCNMKTATCNCSIHVSK; also: lantibiotic nisin-Z: thioether rings and dehydro residues not placed; UniProt P29559 24-57, looked up)
[1]; after first oral 10 g dose, LC-MS/MS, earliest sample collected at 4 h, n = 1 subject
  Time of maximal nisin levels detected in urine: 4 h
[1]; one healthy person, oral 2 x 10 g/150 ml water at noon and 6 pm, urine 4, 8, 18, 20 h after first ingestion, 10 kDa MWCO filtrate, lyophilized, C18 desalted, PRM of +5 precursor, summed fragment AUC
  Nisin detection in urine samples 1–4 by LC-MS/MS: detected
[1]; oral 10 g/150 ml at noon, second 10 g at 6 pm, LC-MS/MS, n = 1 subject, no urine collected before 4 h
  Time window of nisin detection in urine after the first ingestion: 4 to 20 h
[1]; same subject and regimen, urine 27.5 and 33 h after first ingestion (21.5 and 27 h after second), PRM of +5 precursor
  Nisin detection in urine samples 5–6 by LC-MS/MS: not
[1]; second oral 10 g/150 ml dose at 6 pm, LC-MS/MS, n = 1 subject
  Time of nisin detection in urine after the second ingestion: up to 14 hours
[2]; <10 kDa filtrate, urine 8–33 h after first ingestion, anti-nisin rabbit polyclonal antibody
  Nisin detection in urine samples 2 through 6 by immunoblotting: did not detect
[2]; <10 kDa filtrate, urine 4 h after first ingestion, anti-nisin rabbit polyclonal antibody, 16% Tricine SDS-PAGE
  Nisin detection at approximately 3.3 kDa in urine sample 1 by immunoblotting: detected
[2]; >10 kDa retained fraction, urine 4 h after first ingestion, suggests a potential nisin-binding protein
  High molecular weight nisin-positive band at approximately 40 kDa in urine sample 1: nisin-positive band
[3]
  Tolerability of oral ingestion: well tolerated without any adverse events
[4]
  Stability in the harsh conditions of the gastric environment: partially stable
[4]; [7]
  Time at which blood levels declined to baseline: 12 h
  Time of maximum levels of nisin in blood samples: 1 h
[5]
  Migration across gastrointestinal epithelial and vascular endothelial cells: migration of nisin across gastrointestinal epithelial and vascular endothelial cells
[6]
  Integrity of nisin passing through the porcine gastrointestinal tract: remains intact

Source: PMC12439769, “Case of Nisin Oral Ingestion and its LC-MS/MS Detection in Human Urine Over Time: A Case Report” (Archives of clinical and medical case reports, 2025)
